The text below walks through data of US20170114100A1 (ALBERT EINSTEIN COLLEGE OF MEDICINE, published 2017).

This series concerns the molecule itself. Put plainly: SEC dimerization assay (FIG. 4A).

B1: BAX 4MA (C62S, C126S, V121C, I136C), internally cross-linked mutant (other)
chain: MDGSGEQPRGGGPTSSEQIMKTGALLLQGFIQDRAGRMGGEAPELALDPVPQDASTKKLSESLKRIGDELDSNMELQRMIAAVDTDSPREVFFRVAADMFSDGNFNWGRVVALFYFASKLCLKALSTKVPELIRTCMGWTLDFLRERLLGWIQDQGGWDGLLSYFGTPTWQTVTIFVAGVLTASLTIWKKMG
modifications: internal cross-link between the introduced cysteines (V121C, I136C), reduced by DTT
notes: also called BAX 4MA dimer; 4MA monomer
On to B1, for which the binding result is “binds”.
